This is an account of results in publication PMC3201810.

For this assay, the target named is Bacillus cereus ChbC (EIIC component of the diacetylchitobiose phosphotransferase system) (Bacillus cereus). As to the kind of experiment: SEC-MALS. A general note: Size exclusion chromatography separates by hydrodynamic size, large species first.

The term stoichiometry N denotes the number of molecules, sites or subunits per partner or assembly. “Bacillus cereus ChbC (EIIC component of the diacetylchitobiose phosphotransferase system) (natural protein)”: the stoichiometry N is 2.
